The results in this text go back to patent US20140212423A1 (AbbVie / Abbott, published 2014).

The target of test [1] is T1, mouse Transferrin Receptor overexpressed on Hek 293 cells (mouse, UniProt Q62351 1-763).
T1 construct: whole, on cells; also called Hek293/mTfR; 293/mTFR
As to the kind of experiment: cell-based MSD-ECL binding on Hek293 cells overexpressing mouse TfR. As to the method: (§1) Meso-scale Discovery (MSD) Electrochemiluminescesnce (ECL) assays to screen for antibodies or DVDs that bind a desired target antigen expressed on the cell surface were performed as follows: Hek 293 cells overexpressing mouse Transferin Receptor were added onto MSD 96-well plates (MSD Cat# L11 XB-3, lot#2290-EA) which were blocked using blocking buffer (30% FBS Serum (Hyclone) in PBS) at 37° C. for 1 hr. After incubating at RT for 30 min with mild agitation, plates were washed with DPBS 3 times and Abs/DVDs (10,000 ng/ml) were added. After incubating for 1 hr at RT, plates were washed 3 times with DPBS and 25 ul of Goat anti human Sulfo TAG (MSD Cat# R32AC-, Lot# W001162) at 1 μg/ml is added. Following a 1 h incubation at RT for 1 hr, plates are washed and MSD read buffer is added before reading on MSD SECTOR Imager 6000. EC50 values are obtained using Xlfit4 software package

Test [2] concerns the target T2, rmTfR (123-763) (mouse, UniProt Q62351 123-763).
T2 construct: range 123-763; also called recombinant mouse transferrin receptor 123-763
The test is described as follows: Biacore SPR, DVD-Ig captured via anti-human Fc, rmTfR (123-763) in solution. As for the experimental part:
(§2) The BIACORE assay (Biacore, Inc, Piscataway, N.J.) was used to determine the affinity of antibodies or DVD-Ig™ with kinetic measurements of on-rate and off-rate constants. Binding of antibodies or DVD-Ig™ to a target antigen (for example, a purified recombinant target antigen) was determined by surface plasmon resonance-based measurements with a Biacore® 1000 or 3000 instrument (Biacore® AB, Uppsala, Sweden) using running HBS-EP (10 mM HEPES [pH 7.4], 150 mM NaCl, 3 mM EDTA, and 0.005% surfactant P20) at 25° C. All chemicals were obtained from Biacore® AB (Uppsala, Sweden) or otherwise from a different source as described in the text. For example, approximately 5000 RU of goat anti-human IgG, (Fcγ), fragment specific polyclonal antibody (Pierce Biotechnology Inc, Rockford, Ill.) diluted in 10 mM sodium acetate (pH 4.5) was directly immobilized across a CM5 research grade biosensor chip using a standard amine coupling kit according to manufacturer's instructions and procedures at 25 μg/ml. Unreacted moieties on the biosensor surface are blocked with ethanolamine. Modified carboxymethyl dextran surface in flowcell 2 and 4 is used as a reaction surface. Unmodified carboxymethyl dextran without goat anti-human IgG in flow cell 1 and 3 is used as the reference surface. For kinetic analysis, rate equations derived from the 1:1 Langmuir binding model were fitted simultaneously to association and dissociation phases of all eight injections (using global fit analysis) with the use of Biaevaluation 4.0.1 software. Purified antibodies or DVD-Ig™ were diluted in HEPES-buffered saline for capture across goat anti-human IgG specific reaction surfaces. Antibodies or DVD-Ig™ to be captured as a ligand (25 μg/ml) were injected over reaction matrices at a flow rate of 5 μl/min. The association and dissociation rate constants, kon (M⁻¹s⁻¹) and koff (s⁻¹) are determined under a continuous flow rate of 25 μl/min. Rate constants are derived by making kinetic binding measurements at different antigen concentrations ranging from 10-200 nM. The equilibrium dissociation constant (M) of the reaction between antibodies or DVD-Ig™s and the target antigen is then calculated from the kinetic rate constants by the following formula: KD=koff/kon. Binding is recorded as a function of time and kinetic rate constants are calculated.

In test [3] the target is T1, mouse Transferrin Receptor …. The test is described as follows: 293/mTFR cell-based assay. As for the experimental part:
as §1

Test [4] has as its target Repulsive guidance molecule A. The test is described as follows: cell-based or functional assay.
The target in test [5] is T1, mouse Transferrin Receptor …. As to the kind of experiment: mTFR binding cell-based assay. As for the experimental part:
as §1

The target of test [6] is T2, rmTfR (123-763). As to the kind of experiment: Biacore SPR, antibody captured via anti-human Fc, rmTfR (123-763) in solution. As to the method: as §2

T1 sequence (Q62351 whole entry): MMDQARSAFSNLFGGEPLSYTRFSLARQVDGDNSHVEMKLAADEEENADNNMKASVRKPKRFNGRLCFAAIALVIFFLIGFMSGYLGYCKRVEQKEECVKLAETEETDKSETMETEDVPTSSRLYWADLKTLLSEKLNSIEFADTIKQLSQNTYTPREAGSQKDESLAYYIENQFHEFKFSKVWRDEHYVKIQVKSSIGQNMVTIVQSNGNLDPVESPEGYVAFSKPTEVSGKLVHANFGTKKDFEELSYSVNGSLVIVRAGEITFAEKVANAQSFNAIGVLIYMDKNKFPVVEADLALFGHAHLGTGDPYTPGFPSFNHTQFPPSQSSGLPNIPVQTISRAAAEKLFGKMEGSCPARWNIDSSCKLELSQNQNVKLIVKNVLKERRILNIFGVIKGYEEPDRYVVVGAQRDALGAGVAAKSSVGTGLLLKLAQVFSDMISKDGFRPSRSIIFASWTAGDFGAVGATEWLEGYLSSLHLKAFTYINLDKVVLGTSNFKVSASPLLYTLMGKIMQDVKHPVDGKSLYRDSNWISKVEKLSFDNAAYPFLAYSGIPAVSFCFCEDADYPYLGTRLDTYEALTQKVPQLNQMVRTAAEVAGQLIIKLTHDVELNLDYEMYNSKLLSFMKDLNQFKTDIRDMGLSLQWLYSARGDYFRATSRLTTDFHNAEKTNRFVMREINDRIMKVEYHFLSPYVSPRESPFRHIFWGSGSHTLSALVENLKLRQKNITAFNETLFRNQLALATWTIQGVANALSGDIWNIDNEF
T2 sequence (Q62351 123-763): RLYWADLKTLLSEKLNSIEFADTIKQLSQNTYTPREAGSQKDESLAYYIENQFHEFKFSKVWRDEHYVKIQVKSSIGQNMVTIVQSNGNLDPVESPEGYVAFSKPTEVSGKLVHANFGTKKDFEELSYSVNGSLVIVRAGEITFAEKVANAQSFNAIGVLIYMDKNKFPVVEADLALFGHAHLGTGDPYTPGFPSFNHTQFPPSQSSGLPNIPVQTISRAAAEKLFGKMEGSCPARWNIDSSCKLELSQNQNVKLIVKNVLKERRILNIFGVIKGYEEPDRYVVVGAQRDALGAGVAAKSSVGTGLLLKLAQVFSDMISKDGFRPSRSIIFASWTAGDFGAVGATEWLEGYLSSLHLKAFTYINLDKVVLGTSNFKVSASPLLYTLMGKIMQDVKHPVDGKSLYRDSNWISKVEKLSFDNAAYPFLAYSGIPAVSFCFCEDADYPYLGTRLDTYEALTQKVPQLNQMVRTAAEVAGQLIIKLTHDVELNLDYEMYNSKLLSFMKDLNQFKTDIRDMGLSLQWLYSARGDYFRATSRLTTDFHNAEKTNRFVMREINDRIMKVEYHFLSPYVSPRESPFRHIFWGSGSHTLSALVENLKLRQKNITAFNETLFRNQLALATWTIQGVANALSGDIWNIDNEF

B1: DVD2365 (bispecific antibody)
VH: QVQLVQSGAEVKKPGASVKVSCKASGFTFSNYGMHWIRQAPGQGLEWIAMIYYDSSKMNYADTVKGRFTITRDNSTNTLYMELSSLRSEDTAVYYCAVPTSHYVVDVWGQGTTVTVSSASTKGPEVQLLESGGGLVQPGGSLRLSCAASGFTFSNYGMSWVRQAPGKGLEWVASIRSGGGRTYYSDNVKGRFTISRDNSKNTLYLQMNSLRAEDTAVYYCVRYDHYSGSSDYWGQGTLVTVSS
VL: EIVMTQSPATLSVSPGERATLSCQASQDIGNWLAWYQQKPGQSPRLLIYGATSLADGVPARFSGSRSGTEFTLTISSLQSEDFAVYYCLQAYNTPWTFGGGTKVEIKRTVAAPDVVMTQSPLSLPVTPGEPASISCKSSQSLLDSDGKTYLNWLLQKPGQSPQRLIYLVSKLDSGVPDRFSGSGSGTDFTLKISRVEAEDVGVYYCWQGTHFPRTFGQGTKVEIKR
notes: DVD-Ig, outer AB405 (TfR), inner AB043 (APP), HG-short/LK-short; dual variable regions only; constant regions not assigned
In test [1], B1 displayed an EC50 of 3.2 nM. Further, in the test with rmTfR (123-763) [2], binding was characterised by a dissociation constant (Kd) of 78 nM, the koff was 0.000771 s⁻¹ and the kon came out at 9870 M⁻¹ s⁻¹.

B2: RGMA(AE12-1)-GS-TfR(AB402) (bispecific antibody)
VH: EVQLVQSGAEVKKPGASVKVSCKASGYTFTSHGISWVRQAPGQGLDWMGWISPYSGNTNYAQKLQGRVTMTTDTSTSTAYMELSSLRSEDTAVYYCARVGSGPYYYMDVWGQGTLVTVSSGGGGSGGGGSEVQLVESGGGLVQPGGSLRLSCAASGFTFSNYGMHWIRQAPGKGLEWIAMIYYDSSKMNYADTVKGRFTISRDNAKNSLYLQMNSLRAEDTAVYYCAVPTSHYVVDVWGQGTTVTVSS
VL: QSALTQPRSVSGSPGQSVTISCTGTSSSVGDSIYVSWYQQHPGKAPKLMLYDVTKRPSGVPDRFSGSKSGNTASLTISGLQAEDEADYYCCSYAGTDTLFGGGTKVTVLGGGSGGGGSGAIQMTQSPSSLSASVGDRVTITCQASQDIGNWLAWYQQKPGKSPKLLIYGATSLADGVPSRFSGSRSGTDFTLTISSLQPEDFATYYCLQAYNTPWTFGGGTKVEIKR
notes: DVD-Ig composed from its name; constant regions not assigned
For the molecule B2, a half-maximal effect in test [3] (EC50) was put at 5.36 nM. Besides, the “BMP Assay (EC50, nM)” value in test [4] came out at 0.014 nM.

B3: RGMA(AE12-1)-GS-TfR(AB403) (bispecific antibody)
VH: B2 VH
VL: QSALTQPRSVSGSPGQSVTISCTGTSSSVGDSIYVSWYQQHPGKAPKLMLYDVTKRPSGVPDRFSGSKSGNTASLTISGLQAEDEADYYCCSYAGTDTLFGGGTKVTVLGGGSGGGGSGEIVMTQSPATLSVSPGERATLSCQASQDIGNWLAWYQQKPGQSPRLLIYGATSLADGVPARFSGSRSGTEFTLTISSLQSEDFAVYYCLQAYNTPWTFGGGTKVEIKR
notes: DVD-Ig composed from its name; constant regions not assigned; also called RGMA (AE12-1)-GS-AB403 DVD-Ig
Regarding B3, the EC50 in test [3] is 4.3 nM. The “BMP Assay (EC50, nM)” value in test [4] was < 0.025 nM.

B4: DVD2358 (bispecific antibody)
VH: EVQLVESGGGLVQPGGSLRLSCAASGFTFSNYGMHWIRQAPGKGLEWIAMIYYDSSKMNYADTVKGRFTISRDNAKNSLYLQMNSLRAEDTAVYYCAVPTSHYVVDVWGQGTTVTVSSASTKGPEVQLLESGGGLVQPGGSLRLSCAASGFTFSNYGMSWVRQAPGKGLEWVASIRSGGGRTYYSDNVKGRFTISRDNSKNTLYLQMNSLRAEDTAVYYCVRYDHYSGSSDYWGQGTLVTVSS
VL: AIQMTQSPSSLSASVGDRVTITCQASQDIGNWLAWYQQKPGKSPKLLIYGATSLADGVPSRFSGSRSGTDFTLTISSLQPEDFATYYCLQAYNTPWTFGGGTKVEIKRTVAAPDVVMTQSPLSLPVTPGEPASISCKSSQSLLDSDGKTYLNWLLQKPGQSPQRLIYLVSKLDSGVPDRFSGSGSGTDFTLKISRVEAEDVGVYYCWQGTHFPRTFGQGTKVEIKR
notes: DVD-Ig, outer AB402 (TfR), inner AB043 (APP), HG-short/LK-short; dual variable regions only; constant regions not assigned
For the molecule B4, in test [1], the EC50 amounted to 0.1 nM. In the test with rmTfR (123-763) [2], this molecule registered a Kd of 1.3 nM, a koff of 4.06e-05 s⁻¹ and a kon of 31300 M⁻¹ s⁻¹.

B5: DVD2360 (bispecific antibody)
VH: B4 VH
VL: B1 VL
notes: DVD-Ig, outer AB403 (TfR), inner AB043 (APP), HG-short/LK-short; dual variable regions only; constant regions not assigned
B5 yielded an EC50 in test [1] of 0.15 nM. Also, in the test with rmTfR (123-763) [2], the Kd was 1.7 nM, the koff is 4.8e-05 s⁻¹ and the on-rate constant (kon) was 28000 M⁻¹ s⁻¹.

B6: TfR(AB404)-LL-RGMA(AE12-1) (bispecific antibody)
chain 1: QVQLVQSGAEVKKPGASVKVSCKASGFTFSNYGMHWIRQAPGQGLEWIAMIYYDSSKMNYADTVKGRFTITRDNSTNTLYMELSSLRSEDTAVYYCAVPTSHYVVDVWGQGTTVTVSSASTKGPSVFPLAPEVQLVQSGAEVKKPGASVKVSCKASGYTFTSHGISWVRQAPGQGLDWMGWISPYSGNTNYAQKLQGRVTMTTDTSTSTAYMELSSLRSEDTAVYYCARVGSGPYYYMDVWGQGTLVTVSS
chain 2: AIQMTQSPSSLSASVGDRVTITCQASQDIGNWLAWYQQKPGKSPKLLIYGATSLADGVPSRFSGSRSGTDFTLTISSLQPEDFATYYCLQAYNTPWTFGGGTKVEIKRTVAAPSVFIFPPQSALTQPRSVSGSPGQSVTISCTGTSSSVGDSIYVSWYQQHPGKAPKLMLYDVTKRPSGVPDRFSGSKSGNTASLTISGLQAEDEADYYCCSYAGTDTLFGGGTKVTVLG
The molecule B6 had an EC50 in test [3] of 3.61 nM. In test [4], the “BMP Assay (EC50, nM)” value was 13.2 nM.

B7: RGMA(AE12-1)-SS-TfR(AB402) (bispecific antibody)
VH: EVQLVQSGAEVKKPGASVKVSCKASGYTFTSHGISWVRQAPGQGLDWMGWISPYSGNTNYAQKLQGRVTMTTDTSTSTAYMELSSLRSEDTAVYYCARVGSGPYYYMDVWGQGTLVTVSSASTKGPEVQLVESGGGLVQPGGSLRLSCAASGFTFSNYGMHWIRQAPGKGLEWIAMIYYDSSKMNYADTVKGRFTISRDNAKNSLYLQMNSLRAEDTAVYYCAVPTSHYVVDVWGQGTTVTVSS
VL: QSALTQPRSVSGSPGQSVTISCTGTSSSVGDSIYVSWYQQHPGKAPKLMLYDVTKRPSGVPDRFSGSKSGNTASLTISGLQAEDEADYYCCSYAGTDTLFGGGTKVTVLGQPKAAPAIQMTQSPSSLSASVGDRVTITCQASQDIGNWLAWYQQKPGKSPKLLIYGATSLADGVPSRFSGSRSGTDFTLTISSLQPEDFATYYCLQAYNTPWTFGGGTKVEIKR
notes: DVD-Ig composed from its name; constant regions not assigned; not shown: short light-chain linker (code S) after a lambda VL
In turn, B7 displayed an EC50 in test [3] of 30.9 nM. In addition, the “BMP Assay (EC50, nM)” value in test [4] was 0.436 nM.

B8: RGMA(AE12-1)-SS-TfR(AB403) (bispecific antibody)
VH: B7 VH
VL: QSALTQPRSVSGSPGQSVTISCTGTSSSVGDSIYVSWYQQHPGKAPKLMLYDVTKRPSGVPDRFSGSKSGNTASLTISGLQAEDEADYYCCSYAGTDTLFGGGTKVTVLGQPKAAPEIVMTQSPATLSVSPGERATLSCQASQDIGNWLAWYQQKPGQSPRLLIYGATSLADGVPARFSGSRSGTEFTLTISSLQSEDFAVYYCLQAYNTPWTFGGGTKVEIKR
notes: as for B7
B8 yielded a half-maximal effective concentration (EC50) in test [3] of 71 nM. For the same molecule, in test [4], the “BMP Assay (EC50, nM)” value came out at 1.18 nM.

B9: AB403 (antibody, V domains shown)
VH: EVQLVESGGGLVQPGGSLRLSCAASGFTFSNYGMHWIRQAPGKGLEWIAMIYYDSSKMNYADTVKGRFTISRDNAKNSLYLQMNSLRAEDTAVYYCAVPTSHYVVDVWGQGTTVTVSS
VL: EIVMTQSPATLSVSPGERATLSCQASQDIGNWLAWYQQKPGQSPRLLIYGATSLADGVPARFSGSRSGTEFTLTISSLQSEDFAVYYCLQAYNTPWTFGGGTKVEIKR
notes: humanized variant of AB221; constant regions not assigned; also called TfR(AB403)
On to B9, for which a half-maximal response in test [1] (EC50) required 0.09 nM. A half-maximal effect in test [5] (EC50) was put at 0.09 nM. Also, in the test with rmTfR (123-763) [6], the Kd stood at 3.8 nM, the off-rate (koff) was 8.39e-05 s⁻¹ and the kon was determined as 22000 M⁻¹ s⁻¹.
